Reference: patent publication US20250339531A1, “DUX4 POLYPEPTIDES AND NUCLEIC ACIDS FOR TREATING INFLAMMATORY AND AUTOIMMUNE CONDITIONS” (Fred Hutchinson Cancer Center, priority 2021, published 2025)
Entries after “also recorded” stand apart in the source; their conditions may differ.

Tests used:
[1] = tested on: interferon-stimulated genes IFIH1, ISG20, CXCL9, and CD74; experiment: IFNG induction of interferon-stimulated genes, RT-qPCR in MB135 cells with doxycycline-inducible transgenes; type: cell-based, human; details: MB135 cells, doxycycline-induced transgene, continuous protocol, IFNG 16 h
Method: All myoblast experiments were conducted in immortalized MB135 or MB200 myoblast cell lines (isolated from a control or FSHD2 subject, respectively cultured in Ham's F-10 Nutrient Mix (Gibco) supplemented with 15% fetal bovine serum (Hyclone), 100 U/100 μg/ml penicillin/streptomycin (Gibco), 1 μM dexamethasone (Sigma), and 10 ng/ml recombinant human basic fibroblast growth factor (PeproTech). To differentiate the myoblasts to myotubes, media was changed to DMEM supplemented with 10 μg/ml insulin (Sigma) and 10 μg/ml transferrin (Sigma). Cell lines containing doxycycline-inducible transgenes were additionally cultured with 2 μg/mL puromycin (Sigma). Transgenes were induced with 1 μg/mL of doxycycline (Sigma) for 4 hours prior to other treatments for a total of 20 hrs. The Kitra-SRS cells (RRID:CVCL_YI69) were provided by Dr. H. Otani and Osaka University (Nakai et al., 2019) and were cultured in DMEM supplemented with 10% fetal bovine serum (Hyclone) and 100 U/100 μg/ml penicillin/streptomycin (Gibco). Biological replicates consisted of independent but parallel experiments, such as simultaneously stimulating three cell culture plates with IFNγ. Technical replicates consisted of repeat measurements of the same biological sample, such as loading the same biological sample in triplicate for analysis by RT-qPCR.
Myoblasts were transfected with either (final concentrations) 10 μM 2′,3′-cGAMP (Sigma Aldrich), 2 μg/mL poly(I:C) (Invitrogen), or 1 μg/mL 3′ppp-dsRNA RIG-I ligand (Dan Stetson Lab, UW) using Lipofectamine 2000 according to manufacturer's protocol, or were stimulated with 1000U IFNβ (PeproTech) or 200 ng/ml IFNγ (R+D Systems) by addition directly to cell culture medium. After 16 hours of immune stimulation, RNA was collected from cells using the NucleoSpin RNA Kit (Macherey-Nagel) according to manufacturer's instructions. RNA samples were quantified by nanodrop and 1 μg of RNA per sample was treated with DNase I Amplification Grade (Thermo Fisher), and then synthesized into cDNA using the Superscript IV First-Strand Synthesis System, including oligo dT primers (Invitrogen). qPCR was run in 384-well plates on an Applied Biosystems QuantStudio 6 Flex Real-Time PCR System (ABI) and analyzed in Microsoft Excel.

[2] = tested on: STAT1; experiment: Anti-FLAG co-immunoprecipitation and western blot for STAT1; type: binding, human; details: anti-FLAG IP from MB135 cells ± IFNG
Method: Centrifugation at 2500 rcf at 4° C. for 5 min pelleted the nuclei, supernatant was discarded, and nuclei resuspended in 1 mL IP buffer pH 7.4 (25 mM Tris-HCl pH 7.5, 175 mM NaCl, 1 mM EDTA, 0.2% NP-40, 5% glycerol) and incubated for 1 hour at 4° C. with rotation then spun at 21000 rcf for 10 minutes at 4° C. to pellet insoluble debris. Protein concentration was determined using the Pierce BCA Protein Assay Kit (ThermoFisher, 23225). An equivalent amount of protein per sample was pre-cleared with Dynabeads Protein G (Invitrogen) bound to mouse IgG (Abcam #131368) for 1 hour at 4° C. with rotation. FLAG-tagged constructs were then immunoprecipitated with Dynabeads Protein G beads coupled to mouse anti-FLAG M2 mAb (Sigma F3165) for 3 hours at 4° C. with rotation. Beads were washed 3× with 1 mL IP buffer and eluted by adding 2× NuPage LDS Sample Buffer (Thermo Fisher, diluted from 4× with PBS) to the beads and heating for 10 minutes at 70° C.
Antibodies against STAT1 [EPR4407] (ab109320), pSTAT1 Y701 [M135] (ab29045), pSTAT1 S727 [EPR3146] (ab109461), YBX1 [EP2708Y] (ab76149), PABPC1 (ab21060), hnRNPM [EPR13509 (B)] (ab177957), PRKDC [Y393] (ab32566), and HSP90AB1 [EPR16621] (ab203085) were purchased from Abcam. Antibodies against FLAG tag [M2] (F1804) and [M2] (F3146) were purchased from Sigma Aldrich. Antibodies against DDX3X [D19B4] (8192S), hnRNPK [R332] (4675S), TRIM28 [C42G12] […]

[3] = tested on: proteins that co-immunoprecipitated with DUX4-CTD constructs expressed in MB135 myoblasts; experiment: LC-MS of proteins co-immunoprecipitated with DUX4-CTD (Table 1) and western validation; type: binding, human; details: kind of count not given
Outline: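 Two independent experiments compared uninduced, doxycycline and doxycycline+IFNG MB135iDUX4-CTD (plus MB135iDUX4mL1dL2) myoblasts. Anti-FLAG pulldowns (3 h, 4 °C) were eluted in LDS buffer for western validation or with FLAG peptide for trypsin digestion and Orbitrap LC-MS; hits needed ≥2 PSMs in both experiments, ranked by total PSMs.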

B1: mouse Dux: mouse ortholog of human DUX4, SEQ ID NO:15, doxycycline inducible codon altered SEQ ID NO:16 (protein, listed as Mus musculus)
chain: MAEAGSPVGGSGVARESRRRRKTVWQAWQEQALLSTFKKKRYLSFKERKELAKRMGVSDCRIRVWFQNRRNRSGEEGHASKRSIRGSRRLASPQLQEELGSRPQGRGMRSSGRRPRTRLTSLQLRILGQAFERNPRPGFATREELARDTGLPEDTIHIWFQNRRARRRHRRGRPTAQDQDLLASQGSDGAPAGPEGREREGAQENLLPQEEAGSTGMDTSSPSDLPSFCGESQPFQVAQPRGAGQQEAPTRAGNAGSLEPLLDQLLDEVQVEEPAPAPLNLDGDPGGRVHEGSQESFWPQEEAGSTGMDTSSPSDSNSFCRESQPSQVAQPCGAGQEDARTQADSTGPLELLLLDQLLDEVQKEEHVPVPLDWGRNPGSREHEGSQDSLLPLEEAVNSGMDTSIPSIWPTFCRESQPPQVAQPSGPGQAQAPTQGGNTDPLELFLYQLLDEVQVEEHAPAPLNWDVDPGGRVHEGSWESFWPQEEAGSTGLDTSSPSDSNSFFRESKPSQVAQRRGAGQEDARTQADSTGPLELLLFDQLLDEVQKEEHVPAPLDWGRNPGSMEHEGSQDSLLPLEEAANSGRDTSIPSIWPAFCRKSQPPQVAQPSGPGQAQAPIQGGNTDPLELFLDQLLTEVQLEEQGPAPVNVEETWEQMDTTPDLPLTSEEYQTLLDML
suppression of IFNG induction of ISGs (IFIH1, ISG20, CXCL9, CD74) [1]: completely blocked the IFNG induction of these ISG genes
suppression of IFNG induction of ISGs (IFIH1, ISG20, CXCL9, CD74) ([1]; listed as Dux): repress the panel of ISGs even more robustly than the full-length or CTD portion of human DUX4
suppression of IFNG induction of ISGs (IFIH1, ISG20, CXCL9, CD74) ([1]; listed as mouse DUX): completely blocked
co-immunoprecipitation with STAT1 / phosphorylated STAT1 [2]: confirmed the co-immunoprecipitation of STAT1 and both phosphorylated pSTAT1-Y701 and pSTAT1-S727

B2: CIC-DUX4 fusion: Kitra-SRS CIC-DUX4 fusion protein containing the terminal 98 amino acids of DUX4, doxycycline inducible (protein)
chain: MDYKDHDGDYKDHDIDYKDDDDKPPKRMRREPKKKRKVNLEGTSGGILQKEFWRNRIQYNQSQKDILQSWFQHDPFPDKAAREQLAKEIGVPESNIQVWFKNYRVKQRKLDYKCFSEKDQTQGHDQSQHLTQEYLPKEARQKQTFITWTQKNRLVQAFERNPFPDIATRKKLAEQTGLQESRIQMWFQKQRSLYLKKSRMEPMNLLVDDPNERPDATVGWHPINLFLPTDSSHYFSCSHSSSGHETLPPVLPSTQAPWDPFRFHVSQGPNVMIMQPTQAVQEGEKSDQPLIIPNHLLTLPILTKDLDTPTPFWLQYQEEHQNHKEHSGSGVPQVKSHSQPEPEHREQQPLNLGQFDISNILQRWDEICQALLAEWEPLKGTH
suppression of IFNG induction of ISGs (IFIH1, ISG20, CXCL9, CD74) [1]: suppressed IFNγ-induction of ISGs IFIH1, CXCL9, and CD74, although not ISG20

B3: longCTDmL1dL2: longCTD with first (L)LxxL(L) motif disrupted and second deleted, SEQ ID NOS: 10 and 11 (protein)
chain: MDYKDHDGDYKDHDIDYKDDDDKPPKRMRREPKKKRKVGRAPAQAGGLCSAAPGGGHPAPSWVAFAHTGAWGTGLPAPHVPCAPGALPQGAFVSQAARAAPALQPSQAAPAEGISQPAPARGDFAYAAPAPPDGALSHPQAPRWPPHPGKSREDRDPQRDGLPGPCAVAQPGPAQAGPQGQGVLAPPTSQGSPWWGWGRGPQVAGAAWEPQAGAAPPPQPAPPDASASARQGQMQGIPAPSQALQEPAPWSALPCGLLAAEAAASPEFLQQAQPLLETEAPGELEASEEAASLEAPLSEEEYRA
suppression of IFNG induction of ISGs (IFIH1, ISG20, CXCL9, CD74) [1]: does not suppress any of the IFNG-induced ISG genes
suppression of IFNG induction of ISGs (IFIH1, ISG20, CXCL9, CD74) ([1]; listed as iDUX4-CTDmL1dL2): did not block the panel of ISGs
co-immunoprecipitation with STAT1 / phosphorylated STAT1 [2]: both show binding to STAT1; also recorded: STAT1 is associated

B4: DDX3X (protein)
chain: SHVAVENALGLDQQFAGLDLNSSDNQSGGSTASKGRYIPPHLRNREATKGFYDKDSSGWSSSKDKDAYSSFGSRSDSRGKSSFFSDRGSGSRGRFDDRGRSDYDGIGSRGDRSGFGKFERGGNSRWCDKSDEDDWSKPLPPSERLEQELFSGGNTGINFEKYDDIPVEATGNNCPPHIESFSDVEMGEIIMGNIELTRYTRPTPVQKHAIPIIKEKRDLMACAQTGSGKTAAFLLPILSQIYSDGPGEALRAMKENGRYGRRKQYPISLVLAPTRELAVQIYEEARKFSYRSRVRPCVVYGGADIGQQIRDLERGCHLLVATPGRLVDMMERGKIGLDFCKYLVLDEADRMLDMGFEPQIRRIVEQDTMPPKGVRHTMMFSATFPKEIQMLARDFLDEYIFLAVGRVGSTSENITQKVVWVEESDKRSFLLDLLNATGKDSLTLVFVETKKGADSLEDFLYHEGYACTSIHGDRSQRDREEALHQFRSGKSPILVATAVAARGLDISNVKHVINFDLPSDIEEYVHRIGRTGRVGNLGLATSFFNERNINITKDLLDLLVEAKQEVPSWLENMAYEHHYKGSSRGRSKSSRFSGGFGARDYRQSSGASSSSFSSSRASSSRSGGGGHGSSRGFGGGGYGGFYNSDGYGGNYNSQGVDWWGN
4. + IFNG mix ([3]; LC-MS value per protein co-immunoprecipitated from MB135 myoblasts, + IFNG mix sample (no Dox)): 1
4. mL1dL2 + Dox + IFNG ([3]; LC-MS value per protein co-immunoprecipitated with DUX4-CTD construct mL1dL2 in MB135 myoblasts, + Dox + IFNG): 2

B5: iNLS-CTD: 3×FLAG tag nls construct encoding terminal 86 amino acids of DUX4 (aa 339-424), SEQ ID NOS: 12 and 13 (protein)
chain: MDYKDHDGDYKDHDIDYKDDDDKPKKKRKVNASASARQGQMQGIPAPSQALQEPAPWSALPCGLLLDELLASPEFLQQAQPLLETEAPGELEASEEAASLEAPLSEEEYRALLEEL
modifications: 3xFLAG tag and NLS
suppression of IFNG induction of ISGs (IFIH1, ISG20, CXCL9, CD74) [1]: suppresses a portion of the IFNG-induced ISG genes, CXCL9 and CD74
suppression of IFNG induction of ISGs (IFIH1, ISG20, CXCL9, CD74) ([1]; listed as iDUX4aa339-424): maintained ISG suppression, though not as strongly on the IFIH1 and ISG20 genes
suppression of IFNG induction of ISGs (IFIH1, ISG20, CXCL9, CD74) ([1]; listed as iNLS CTD): suppresses two of the four IFNG-induced
